From patent US20230417748A1 come the findings set out here.

Values joined by “and” are separate entries in the source; they are usually repeats but may differ in a detail not shown here. Equal entries are not always repeated.

For this test, the target named is recombinant SARS (1-1190) (Beta Lifescience, BLIT-0210) (SARS-CoV), P59594. The following applies: remark: other sources report otherwise.

B1: clone 5E9 (antibody, V domains shown)
VH: EVQLVESGGGLVQPGGSLRLSCAASGFTFTTYDMGWVRQAPGKGPEWVSLISSGGSNTWYDDSVKGRFTISRDNSKNTLYLQMNSLRAEDTAVYYCAKEKYPYSDCDYWGQGTLVTVSS
For the molecule B1, the O.D. is 0.294 O.D. and 0.278 O.D.

B2: clone 6D9 (antibody, V domains shown)
VH: EVQLVESGGGLVQPGGSLRLSCAASGFTFTDYDMGWVRQAPGKGPEWVSLISGDSGNTWYDDSVKGRFTISRDNSKNTLYLQMNSLRAEDTAVYYCAKYRGTTKDYWGQGTLVTVSS
As to B2, the O.D. was 0.389 O.D. and 0.386 O.D.
